The target in one test is ErbB2 (UniProt P04626). The test can be described thus: inhibition of 125I-HRGβ177-244 (0.1 nM) binding to T47D cells; 2C4 varied.
Test [1] concerns the target HRGβ177-244 (UniProt Q02297). Kind of test: 125I-HRGβ177-244 binding to ErbB3-IgG homodimer (positive control), 96-well plate, Scatchard analysis.
The next test concerns the target HRGα EGF domain177-241 (UniProt Q02297). The test can be described thus: cell-based or functional assay.
For test [2], the target named is T1, HRGβ 1 EGF domain 176-246 (UniProt Q02297-6 176-246, 125I-labelled in the crosslinking experiment (residue not stated)).
T1 sequence (looked up): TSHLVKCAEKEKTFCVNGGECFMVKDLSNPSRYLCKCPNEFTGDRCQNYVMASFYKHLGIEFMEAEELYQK
Kind of test: cell-based or functional assay.

Test [3] concerns the target HRGα EGF domain177-241, Q02297. The test can be described thus: cell-based or functional assay.
The target of test [4] is HRGβ177-244 (UniProt Q02297). Kind of test: inhibition of 125I-HRGβ177-244 (0.1 nM) binding to T47D cells; p85-sErbB3 varied.
The target of test [5] is HRGβ177-244 (UniProt Q02297). Kind of test: 125I-HRGβ177-244 binding to immobilized p85-sErbB3, 96-well plate, Scatchard analysis.

These results are taken from patent US20080267961A1 (published 2008).

“2C4, a monoclonal antibody specific for the ErbB2 extracellular domain”: the IC50 in the test with ErbB2 was determined as 0.55 nM.
As to “ErbB3-IgG fusion protein (from UniProt P21860 20-643) (Fc fusion)”, the Kd with HRGβ177-244 [1] worked out at 4.7 nM.
“p45-sErbB3 (from UniProt P21860 20-329) (receptor)” came in with an inhibition of HRGα-stimulated ErbB3 activation (tyrosine phosphorylation, densitometry) in Ba/F3 (ErbB2+ErbB3) cells, 1 µg/ml HRGα, conditioned medium with HRGα EGF domain177-241 of 40%. In test [2], the decrease of ligand-stimulated ErbB3 tyrosine phosphorylation in Ba/F3 (ErbB2+ErbB3) cells, 50 and 100 ng/ml HRGβ, conditioned medium was determined as 60%.

B1: p85-sErbB3, P21860 20-538 (receptor)
chain: SEVGNSQAVCPGTLNGLSVTGDAENQYQTLYKLYERCEVVMGNLEIVLTGHNADLSFLQWIREVTGYVLVAMNEFSTLPLPNLRVVRGTQVYDGKFAIFVMLNYNTNSSHALRQLRLTQLTEILSGGVYIEKNDKLCHMDTIDWRDIVRDRDAEIVVKDNGRSCPPCHEVCKGRCWGPGSEDCQTLTKTICAPQCNGHCFGPNPNQCCHDECAGGCSGPQDTDCFACRHFNDSGACVPRCPQPLVYNKLTFQLEPNPHTKYQYGGVCVASCPHNFVVDQTSCVRACPPDKMEVDKNGLKMCEPCGGLCPKACEGTGSGSRFQTVDSSNIDGFVNCTKILGNLDFLITGLNGDPWHKIPALDPEKLNVFRTVREITGYLNIQSWPPHMHNFSVFSNLTTIGGRSLYNRGFSLLIMKNLNVTSLGFRSLKEISAGRIYISANRQLCYHHSLNWTKVLRGPTEERLDIKHNRPRRDCVAEGKVCDPLCSSGGCWGPGPGQCLSCRNYSRGGVCVTHCNFLNGYSKGSQSRMGGGGALQWNCSGGIQ
modifications: here or on the partner: Secreted glycoprotein (bound to Con A); glycans not carried by the letters.
With B1, in test [3], the decrease of HRGα-stimulated ErbB3 activation in Ba/F3 (ErbB2+ErbB3) cells, 2 µg/ml HRGα, conditioned medium turned out to be 30% and the inhibition of HRGα-stimulated ErbB3 activation (tyrosine phosphorylation, densitometry) in Ba/F3 (ErbB2+ErbB3) cells, 1 µg/ml HRGα, conditioned medium came out at 80%.

B2: p85-sErbB3 (receptor)
chain: SEVGNSQAVCPGTLNGLSVTGDAENQYQTLYKLYERCEVVMGNLEIVLTGHNADLSFLQWIREVTGYVLVAMNEFSTLPLPNLRVVRGTQVYDGKFAIFVMLNYNTNSSHALRQLRLTQLTEILSGGVYIEKNDKLCHMDTIDWRDIVRDRDAEIVVKDNGRSCPPCHEVCKGRCWGPGSEDCQTLTKTICAPQCNGHCFGPNPNQCCHDECAGGCSGPQDTDCFACRHFNDSGACVPRCPQPLVYNKLTFQLEPNPHTKYQYGGVCVASCPHNFVVDQTSCVRACPPDKMEVDKNGLKMCEPCGGLCPKACEGTGSGSRFQTVDSSNIDGFVNCTKILGNLDFLITGLNGDPWHKIPALDPEKLNVFRTVREITGYLNIQSWPPHMHNFSVFSNLTTIGGRSLYNRGFSLLIMKNLNVTSLGFRSLKEISAGRIYISANRQLCYHHSLNWTKVLRGPTEERLDIKHNRPRRDCVAEGKVCDPLCSSGGCWGPGPGQCLSCRNYSRGGVCVTHCNFLNGYSKGSQSRMGGGGALQWNCSGGIQ
modifications: Secreted glycoprotein (bound to Con A); glycans not carried by the letters.
Regarding B2, in test [2], the “inhibition of HRGβ-stimulated MCF7 cell growth, 0.4 nM HRGβ, 40 nM p85-sErbB3 (100-fold molar excess), 5,000 cells/well” value turned out to be 75% and the “inhibition of HRGβ-stimulated MCF7 cell growth, 0.4 nM HRGβ, 40 nM p85-sErbB3 (100-fold molar excess), 8,000 cells/well” value amounted to 90%. The IC50 with HRGβ177-244 [4] turned out to be 0.45 nM. In the test with HRGβ177-244 [5], this molecule had a Kd of 3 nM.

The term IC50 denotes the concentration at which inhibition is half-maximal. A word on the Kd: it is the equilibrium constant for the complex coming apart. Read a high Kd as weaker binding.
